# Test results taken from patent publication US7423021B2, “Peptidic thrombin inhibitors” (NSCI Novel Science International GmbH, priority 2003, dated 2008).
# Numbered stars: 1 amine (or outer) side, 2 acyl side, 3 side chain; on linkers, the order of the positions; unused ones are H or OH. Square brackets hold non-standard residues; d marks the D form. Peptide text beside a SMILES is read from it. * marks the point of attachment. Ppd = 4-phenylpiperidine-4-carboxylic acid, O=C(C1(c2ccccc2)CCN([*:1])CC1)[*:2]; Tpi = O=C(O)[C@@H]1Cc2c([nH]c3ccccc23)CN1; X1 = N=C(N)NC[C@H]1CC[C@H](C(=O)*)CC1; hArg = N=C(N)NCCCC[C@H](N)C(=O)O; Tic = O=C(O)[C@@H]1Cc2ccccc2CN1; Cha = N[C@@H](CC1CCCCC1)C(=O)O; Cit = NC(=O)NCCC[C@H](N)C(=O)O; dCha = N[C@H](CC1CCCCC1)C(=O)O; Phg = N[C@H](C(=O)O)c1ccccc1; Dcp = dichlorophenylalanine; Nle = CCCC[C@H](N)C(=O)O; Aze = O=C(O)[C@@H]1CCN1; Tea = thienylalanine
# Biological target: thrombin (Homo sapiens, UniProt P00734)
# Assay: in-vitro inhibition of the amidase activity of thrombin (fluorogenic substrate Tos-Gly-Pro-Arg-AMC)
# Format: biochemical
# Set-up: 10 μl of human thrombin solution
# Conditions: not given
# Description: The values of the inhibiting constants Ki were obtained from assays in which thrombin hydrolyzes the fluorogenic substrate Tos-Gly-Pro-Arg-(7-amino-4-methylcumarin). The assays were carried out in […] of assay buffer (0.05 M tris, 0.1 M NaCl, 0.1% PEG 8000, pH 7.6) with 10 μl of human thrombin solution (10^−5 U/μl in the assay buffer) and 140 μl of a solution of the fluorogenic substrate in an assay buffer at a concentration of 30 μM. Solutions of the test compound (10 μl) were added at various concentrations. The rates of the hydrolysis of the substrate were measured by monitoring the reactions at […] of the release of 7-amino-4-methylcumarin using AMC. The reaction reached an equilibrium state within three minutes, after thrombin, the substrate, and an inhibitor were mixed. The kinetic data of the competing inhibition (Km, Vmax, and Ki) were analyzed by means of the representation according to Hanes (A/V against A at various values of A, where A is the substrate concentration and V the reaction rate).
row,Molecule,Ki [nM]
1,"N=C(N)NCCCC[C@H](NC(=O)[C@@H](Cc1ccc(O)cc1)NC(=O)[C@@H]1CCN1C(=O)[C@@H](CC1CCCCC1)NC(=O)[C@H]1CC[C@H](CNC(=N)N)CC1)C(N)=O [Example 31, Trans-4-(guanidinomethyl)cyclohexanecarboxylic acid-D-Cha-L-Aze-D-Try-L-Har amide] (X1-[dCha][Aze][dY][hArg]-NH2)",3

# Same assay, conditions: peptide concentration of 250 nM
row,Molecule,inhibition of the amidase activity of the thrombin [%]
1,N-acetyl-D-Phe-D-Cha-L-Aze-D-Tyr-L-Har amide (Ac-[dF][dCha][Aze][dY][hArg]-NH2; SMILES CC(=O)N[C@H](Cc1ccccc1)C(=O)N[C@H](CC1CCCCC1)C(=O)N1CC[C@H]1C(=O)N[C@H](Cc1ccc(O)cc1)C(=O)N[C@@H](CCCCNC(=N)N)C(N)=O) [Example 20],77
2,N-acetyl-L-Cha-D-Cha-L-Aze-D-Tyr-L-Har amide (Ac-[Cha][dCha][Aze][dY][hArg]-NH2) [Example 28],90
3,N-acetyl-L-Nle-D-Cha-L-Aze-D-Tyr-L-Har amide (Ac-[Nle][dCha][Aze][dY][hArg]-NH2; SMILES CCCC[C@H](NC(C)=O)C(=O)N[C@H](CC1CCCCC1)C(=O)N1CC[C@H]1C(=O)N[C@H](Cc1ccc(O)cc1)C(=O)N[C@@H](CCCCNC(=N)N)C(N)=O) [Example 27],89
4,N-acetyl-L-Tea-D-Cha-L-Aze-D-Tyr-L-Har amide (Ac-[Tea][dCha][Aze][dY][hArg]-NH2) [Example 25],74
5,N-acetyl-L-Dcp-D-Cha-L-Aze-D-Tyr-L-Har amide (Ac-[Dcp][dCha][Aze][dY][hArg]-NH2) [Example 21],75
6,N-acetyl-L-Ppd-D-Cha-L-Aze-D-Tyr-L-Har amide (Ac-[Ppd][dCha][Aze][dY][hArg]-NH2) [Example 24],76
7,N-acetyl-L-Iq3-D-Cha-L-Aze-D-Tyr-L-Har amide (Ac-[Tic][dCha][Aze][dY][hArg]-NH2) [Example 23],72
8,N-acetyl-L-Nhm-D-Cha-L-Aze-D-Tyr-L-Har amide (Ac-[Tpi][dCha][Aze][dY][hArg]-NH2; SMILES CC(=O)N1Cc2[nH]c3ccccc3c2C[C@H]1C(=O)N[C@H](CC1CCCCC1)C(=O)N1CC[C@H]1C(=O)N[C@H](Cc1ccc(O)cc1)C(=O)N[C@@H](CCCCNC(=N)N)C(N)=O) [Example 22],80
9,N-acetyl-L-Ala-D-Cha-L-Aze-D-Tyr-L-Har amide (Ac-A[dCha][Aze][dY][hArg]-NH2; SMILES CC(=O)N[C@@H](C)C(=O)N[C@H](CC1CCCCC1)C(=O)N1CC[C@H]1C(=O)N[C@H](Cc1ccc(O)cc1)C(=O)N[C@@H](CCCCNC(=N)N)C(N)=O) [Example 19],77
10,N-acetyl-L-Phg-D-Cha-L-Aze-D-Tyr-L-Har amide (Ac-[Phg][dCha][Aze][dY][hArg]-NH2) [Example 26],95

# Same assay, conditions: peptide concentration of 1 μM
row,Molecule,inhibition of the amidase activity of the thrombin [%]
1,N-acetyl-D-Val-D-His-L-Cha-D-Pro-D-Tyr-L-Arg amide (Ac-[dV][dH][Cha][dP][dY]R-NH2; SMILES CC(=O)N[C@@H](C(=O)N[C@H](Cc1c[nH]cn1)C(=O)N[C@@H](CC1CCCCC1)C(=O)N1CCC[C@@H]1C(=O)N[C@H](Cc1ccc(O)cc1)C(=O)N[C@@H](CCCNC(=N)N)C(N)=O)C(C)C) [Example 3],51
2,N-acetyl-L-Trp-L-Cha-D-Pro-D-Tyr-L-Arg amide (Ac-W[Cha][dP][dY]R-NH2; SMILES CC(=O)N[C@@H](Cc1c[nH]c2ccccc12)C(=O)N[C@@H](CC1CCCCC1)C(=O)N1CCC[C@@H]1C(=O)N[C@H](Cc1ccc(O)cc1)C(=O)N[C@@H](CCCNC(=N)N)C(N)=O) [Example 9],63
3,N-acetyl-D-Glu-L-Cha-D-Pro-D-Tyr-L-Arg amide (Ac-[dE][Cha][dP][dY]R-NH2; SMILES CC(=O)N[C@H](CCC(=O)O)C(=O)N[C@@H](CC1CCCCC1)C(=O)N1CCC[C@@H]1C(=O)N[C@H](Cc1ccc(O)cc1)C(=O)N[C@@H](CCCNC(=N)N)C(N)=O) [Example 2],58
4,N-acetyl-D-Tyr-L-Cha-D-Pro-D-Tyr-L-Arg amide (Ac-[dY][Cha][dP][dY]R-NH2; SMILES CC(=O)N[C@H](Cc1ccc(O)cc1)C(=O)N[C@@H](CC1CCCCC1)C(=O)N1CCC[C@@H]1C(=O)N[C@H](Cc1ccc(O)cc1)C(=O)N[C@@H](CCCNC(=N)N)C(N)=O) [Example 13],47
5,N-acetyl-D-Gln-D-His-L-Cha-D-Pro-D-Tyr-L-Arg amide (Ac-[dQ][dH][Cha][dP][dY]R-NH2; SMILES CC(=O)N[C@H](CCC(N)=O)C(=O)N[C@H](Cc1c[nH]cn1)C(=O)N[C@@H](CC1CCCCC1)C(=O)N1CCC[C@@H]1C(=O)N[C@H](Cc1ccc(O)cc1)C(=O)N[C@@H](CCCNC(=N)N)C(N)=O) [Example 1],59
6,N-acetyl-D-Val-L-Cha-D-Pro-D-Tyr-L-Arg amide (Ac-[dV][Cha][dP][dY]R-NH2; SMILES CC(=O)N[C@@H](C(=O)N[C@@H](CC1CCCCC1)C(=O)N1CCC[C@@H]1C(=O)N[C@H](Cc1ccc(O)cc1)C(=O)N[C@@H](CCCNC(=N)N)C(N)=O)C(C)C) [Example 8],45
7,N-acetyl-L-Ala-D-Cha-L-Aze-D-Tyr-L-Arg amide (Ac-A[dCha][Aze][dY]R-NH2; SMILES CC(=O)N[C@@H](C)C(=O)N[C@H](CC1CCCCC1)C(=O)N1CC[C@H]1C(=O)N[C@H](Cc1ccc(O)cc1)C(=O)N[C@@H](CCCNC(=N)N)C(N)=O) [Example 16],63
8,N-acetyl-L-Ala-L-Cha-D-Pro-D-Tyr-L-Arg amide (Ac-A[Cha][dP][dY]R-NH2; SMILES CC(=O)N[C@@H](C)C(=O)N[C@@H](CC1CCCCC1)C(=O)N1CCC[C@@H]1C(=O)N[C@H](Cc1ccc(O)cc1)C(=O)N[C@@H](CCCNC(=N)N)C(N)=O) [Example 4],44
9,N-acetyl-L-Ile-L-Arg-L-Cha-D-Pro-D-Tyr-L-Arg amide (Ac-IR[Cha][dP][dY]R-NH2; SMILES CC[C@H](C)[C@H](NC(C)=O)C(=O)N[C@@H](CCCNC(=N)N)C(=O)N[C@@H](CC1CCCCC1)C(=O)N1CCC[C@@H]1C(=O)N[C@H](Cc1ccc(O)cc1)C(=O)N[C@@H](CCCNC(=N)N)C(N)=O) [Example 5],61
10,N-acetyl-L-Tyr-L-Cit-L-Cha-D-Pro-D-Tyr-L-Arg amide (Ac-Y[Cit][Cha][dP][dY]R-NH2; SMILES CC(=O)N[C@@H](Cc1ccc(O)cc1)C(=O)N[C@@H](CCCNC(N)=O)C(=O)N[C@@H](CC1CCCCC1)C(=O)N1CCC[C@@H]1C(=O)N[C@H](Cc1ccc(O)cc1)C(=O)N[C@@H](CCCNC(=N)N)C(N)=O) [Example 6],55
11,N-acetyl-L-Ser-L-Arg-L-Cha-D-Pro-D-Tyr-L-Arg amide (Ac-SR[Cha][dP][dY]R-NH2; SMILES CC(=O)N[C@@H](CO)C(=O)N[C@@H](CCCNC(=N)N)C(=O)N[C@@H](CC1CCCCC1)C(=O)N1CCC[C@@H]1C(=O)N[C@H](Cc1ccc(O)cc1)C(=O)N[C@@H](CCCNC(=N)N)C(N)=O) [Example 11],51
12,N-acetyl-D-Lys-L-Nle-L-Cha-D-Pro-D-Tyr-L-Arg amide (Ac-[dK][Nle][Cha][dP][dY]R-NH2; SMILES CCCC[C@H](NC(=O)[C@@H](CCCCN)NC(C)=O)C(=O)N[C@@H](CC1CCCCC1)C(=O)N1CCC[C@@H]1C(=O)N[C@H](Cc1ccc(O)cc1)C(=O)N[C@@H](CCCNC(=N)N)C(N)=O) [Example 12],48
13,N-acetyl-L-Ser-L-Ser-L-Cha-D-Pro-D-Tyr-L-Arg amide (Ac-SS[Cha][dP][dY]R-NH2; SMILES CC(=O)N[C@@H](CO)C(=O)N[C@@H](CO)C(=O)N[C@@H](CC1CCCCC1)C(=O)N1CCC[C@@H]1C(=O)N[C@H](Cc1ccc(O)cc1)C(=O)N[C@@H](CCCNC(=N)N)C(N)=O) [Example 7],40
14,N-acetyl-L-Ala-D-Cha-L-Pro-D-Tyr-L-Har amide (Ac-A[dCha]P[dY][hArg]-NH2; SMILES CC(=O)N[C@@H](C)C(=O)N[C@H](CC1CCCCC1)C(=O)N1CCC[C@H]1C(=O)N[C@H](Cc1ccc(O)cc1)C(=O)N[C@@H](CCCCNC(=N)N)C(N)=O) [Example 17],56
15,N-acetyl-L-Tyr-D-Pro-L-Cha-D-Pro-D-Tyr-L-Arg amide (Ac-Y[dP][Cha][dP][dY]R-NH2; SMILES CC(=O)N[C@@H](Cc1ccc(O)cc1)C(=O)N1CCC[C@@H]1C(=O)N[C@@H](CC1CCCCC1)C(=O)N1CCC[C@@H]1C(=O)N[C@H](Cc1ccc(O)cc1)C(=O)N[C@@H](CCCNC(=N)N)C(N)=O) [Example 15],44
16,N-acetyl-L-Arg-L-Cha-D-Pro-D-Tyr-L-Arg amide (Ac-R[Cha][dP][dY]R-NH2; SMILES CC(=O)N[C@@H](CCCNC(=N)N)C(=O)N[C@@H](CC1CCCCC1)C(=O)N1CCC[C@@H]1C(=O)N[C@H](Cc1ccc(O)cc1)C(=O)N[C@@H](CCCNC(=N)N)C(N)=O) [Example 14],47
17,N-acetyl-L-Ser-L-Ala-L-Cha-D-Pro-D-Tyr-L-Arg amide (Ac-SA[Cha][dP][dY]R-NH2; SMILES CC(=O)N[C@@H](CO)C(=O)N[C@@H](C)C(=O)N[C@@H](CC1CCCCC1)C(=O)N1CCC[C@@H]1C(=O)N[C@H](Cc1ccc(O)cc1)C(=O)N[C@@H](CCCNC(=N)N)C(N)=O) [Example 10],47
